From publication PMC4077652, “An Unstable Th Epitope of P. falciparum Fosters Central Memory T Cells and Anti-CS Antibody Responses” (PLoS ONE, 2014)
pIC50, pKd: −log10 of the molar value. Where “and” joins values, the source holds several entries; their conditions need not be identical. Equal entries are not always repeated. Where two headings read alike, the source gives them in different places.

Columns and labels:
[1] = target: soluble recombinant HLA-DR4 (HLA-DRβ1*04:01) (human); test: ELISA
[2] = target: soluble recombinant HLA-DR4 (HLA-DRβ1*04:01) (human); test: ELISA; apparent Kd; direct binding of biotin-labeled peptide to DR4 as in the DR-ELISA (72 h), binding reactions set up with 1 µM HLA-DM
[3] = target: soluble recombinant HLA-DR4 (HLA-DRβ1*04:01) (human); test: dissociation kinetics (LB3.1 capture, europium-streptavidin time-resolved fluorescence)
[4] = target: soluble recombinant HLA-DR4 (HLA-DRβ1*04:01) (human)
[5] = target: soluble recombinant HLA-DR4 (HLA-DRβ1*04:01) (human); test: ELISA; remark: listed apart in the source

QNT-5 332-345 peptide, unlabeled
pIC50 [1]: 5.77

biotin-labeled T*-1 327-338 peptide
pKd [2]: 7.29
pKd [1]: 7.37
half-life [3]: 63.9 h
half-life with HLA-DM [3]: 4.9 h

biotin-labeled HA 306-318 peptide
half-life [4]: 620 h

QNT-Y peptide (QNT-5 analogue L335Y), unlabeled
pIC50 [1]: 6.89

biotin-labeled T* 326-345 peptide (NF-54 variant)
pKd [1]: 6.61 and 6.91

HA 306-318 peptide, unlabeled
pIC50 [1]: 6.51
pIC50 [5]: 3.76
